Assay results taken from patent publication US20020107366A1 (JURIDICAL FOUNDATION THE CHEMO SERO THERAPEUTIC RESEARCH …, published 2002).

B1: FLAF p40 (ligand)
chain: IWELEKNVYVVELDWHPDAPGEMVVLTCNTPEEDDITWTSDQSSEVLGSGKTLTIQVKEFADAGQYTCHKGGEVLSHSFLLIHKKEDGIWSTDILREQKESKNKIFLKCEAKNYSGRFTCWWLTAISTDLKFTVKSSRGSSDPQGVTCGAATLSAEKVRVDNRDYKKYTVECQEGSACPAAEESLPIEVVVDAIHKLKYENYTSSFFIRDIIKPDPPKNLQLKPLKNSRHVEVSWEYPDTWSTPHSYFSLTFGVQVQGKNNREKKDRLSVDKTSAKVVCHKDAKIRVQARDRYYSSSWSNWASVSCS
notes: also called protein with a molecular weight of about 40,000
B2: FLAF p35 (ligand)
chain: RNLPTPTPSPGMFQCLNHSQTLLRAISNTLQKARQTLEFYSCTSEEIDHEDITKDKTSTVEACLPLELTMNESCLASREISLITNGSCLASRKTSFMTTLCLSSIYEDLKMYQVEFKAMNAKLLMDPKRQIFLDQNMLTAIDELLQALNVNSVTVPQNSSLEEPDFYKTKIKLCILLHAFRIRAVTINRMMSYLNSS
notes: also called protein with a molecular weight of about 35,000

Legend:
[1] = molecular target: the molecule itself; test: Western blot of culture supernatant of COS7 cells transfected with CAGfp40; self-association of p40
Procedure: The day (20 hours) before transfection, COS7 cells were plated on a 6 well plate at 2×10⁵ cells/well. On the next day, Lipofect Ace reagent was mixed with the expression plasmid (1 μg of cAGf40 per well) and the mixture was left to stand at room temperature for 15 minutes and then added to the COS7 cells, followed by addition of serum free medium Opti-MEM (0.8 ml). On the next day, 2 ml of serum free medium (ASF104; Ajinomoto K. K.) was added and culture was continued for additional 2 days and then culture supernatant was recovered. A portion of the supernatant was subjected to Western blot as described in Example 11 to detect expression products which reacted with polyclonal antibodies which recognize FLAF p40. As a result, bands corresponding to FLAF p40 reactive with anti-FLAF p40 antibody (MW about 40,000) and to a homologous dimer thereof (MW about 80,000) were detected (FIG. 11).
A polyclonal antibody against FLAF p40 was prepared by injecting each 1 ml of the FLAF p40 expression plasmid (CAGfp40) (1 mg/ml; Example 5) intramuscularly into both rear legs of a rabbit four times at every 3 weeks. Western blot was used to determine whether the obtained antibody recognized FLAF p40 (FIG. 16). First, purified FLAF was subjected to SDS-PAGE in the absence of 2-mercaptoethanol and then transferred to PVDF membrane as described in Example 3. […]

FLAF p40 = molecular target: B1; test: non-reducing SDS-PAGE and Western blot with anti-p35 and anti-p40 antibodies; subunit association
Procedure: These bands were analyzed by Western blot as described in Example 2 wherein two membranes were prepared, i.e. one using a monoclonal antibody against the partial synthetic peptide of FLAF p35 produced by the clone F18-4 as described in Example 12 as a primary antibody and another using the antibody against FLAF p40 as described in Example 11. As a result, both p75 and p80 reacted with both antibodies to confirm that they are both heterologous dimer of FLAF p35 and FLAF p40.

Binder	binding result [1]	binding result (FLAF p40)
B1	binds	
B2		binds
